{"source": "patent US20090068173A1", "about": "(LABORATOIRES SERONO S A, published 2009)", "target": "T1, CCL3/MIP-1 alpha (UniProt P10147 24-92)", "T1 construct": "also called MIP-1α; 125I-CCL3/MIP-1 alpha", "T1 sequence (looked up)": "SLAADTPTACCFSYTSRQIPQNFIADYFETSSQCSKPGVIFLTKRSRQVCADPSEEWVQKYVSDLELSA", "assay": "SPA competition: ChBP-59-HIS (insect cells) titrated against radiolabeled CCL3/MIP-1 alpha and bead-immobilized CCR5", "data": [{"binder": "ChBP-59-HIS (recombinant histidine-tagged ChBP-59, mature form) (other) EDDEDYGDLGGCPFLVAENKTGYPTIVACKQDCNGTTETAPNGTRCFSIGDEGLRRMTANLPYDCPLGQCSNGDCIPKETYEVCYRRNWRDKKNHHHHHH", "values": [{"measurement": "EC50", "value": 0.012, "unit": "nM"}]}]}
